These results are taken from paper PMC11137118 (2024).

Assay [1] addresses all variants (mouse) of IL-22-ScFv. The assay is described as follows: SPR. (In general: Surface plasmon resonance follows binding to a sensor surface in real time, without labels.)
Assay [2] addresses hIL-22-ScFv (human IL-22 fused to a pancreas/liver targeting single chain variable fragment, linker (G4S)1) (human, UniProt Q9GZX6). The assay is described as follows: SPR.

B1: IL-22RA1 receptor (receptor)
chain: HAPEDPSDLLQHVKFQSSNFENILTWDSGPEGTPDTVYSIEYKTYGERDWVAKKGCQRITRKSCNLTVETGNLTELYYARVTAVSAGGRSATKMTDRFSSLQHTTLKPPDVTCISKVRSIQMIVHPTPTPIRAGDGHRLTLEDIFHDLFYHLELQVNRTYQMHLGGKQREYEFFGLTPDTEFLGTIMICVPTWAKESAPYMCRVKTLPDRTWTYSFSGAFLFSMGFLVAVLCYLSYRYVTKPPAPPNSLNVQRVLTFQPLRFIQEHVLIPVFDLSGPSSLAQPVQYSQIRVSGPREPAGAPQRHSLSEITYLGQPDISILQPSNVPPPQILSPLSYAPNAAPEVGPPSYAPQVTPEAQFPFYAPQAISKVQPSSYAPQATPDSWPPSYGVCMEGSGKDSPTGTLSSPKHLRPKGQLQKEPPAGSCMLGGLSLQEVTSLAMEESQEAKSLHQPLGICTDRTSDPNVLHSGEEGTPQYLKGQLPLLSSVQIEGHPMSLPLQPPSRPCSPSDQGPSPWGLLESLVCPKDEAKSPAPETSDLEQPTELDSLFRGLALTVQWES
Take B1: the Kd was found to be 2.82 nM in assay [1] and 3.45 nM in assay [2]. The off-rate (koff) in assay [1] amounted to 0.000872 s⁻¹; in assay [2], 0.000781 s⁻¹.

What is called Kd is the equilibrium constant for the complex coming apart. Low values mean a tighter complex, high ones a looser complex. What is called koff is the first-order rate constant of dissociation. A lower koff goes with a long-lived complex.
